The values below come from patent publication US20120238509A1.

The chains are these.
B1: [Cys^1, 51(Acm)]-hUcn2(1-51)-OH) (peptide)
peptide: C(Acm)SPTRHPGSRIVLSLDVPIGLLQILLEQARARAAREQATTNARILARVGHC(Acm)-OH
B2: hUcn 2 prohormone (peptide)
peptide: IPTFQLRPQNSPQTTPRPAASESPSAAPTWPWAAQSHCSPTRHPGSRIVLSLDVPIGLLQILLEQARARAAREQATTNARILARV
modifications: here or on the partner: amidated at the C-terminus
B3: mUcn 2 prohormone (peptide)
peptide: TPIPTFQLLPQNSLETTPSSVTSESSSGTTTGPSASWSNSKASPYLDTRVILSLDVPIGLLRILLEQARYKAARNQAATNAQILAHV
modifications: here or on the partner: amidated at the C-terminus

No end group written: not given here. *: point of attachment. Acm = CC(=O)NC*

CRFR^2 expressed by A7r5 cells, P47866, sequence (P47866 20-411): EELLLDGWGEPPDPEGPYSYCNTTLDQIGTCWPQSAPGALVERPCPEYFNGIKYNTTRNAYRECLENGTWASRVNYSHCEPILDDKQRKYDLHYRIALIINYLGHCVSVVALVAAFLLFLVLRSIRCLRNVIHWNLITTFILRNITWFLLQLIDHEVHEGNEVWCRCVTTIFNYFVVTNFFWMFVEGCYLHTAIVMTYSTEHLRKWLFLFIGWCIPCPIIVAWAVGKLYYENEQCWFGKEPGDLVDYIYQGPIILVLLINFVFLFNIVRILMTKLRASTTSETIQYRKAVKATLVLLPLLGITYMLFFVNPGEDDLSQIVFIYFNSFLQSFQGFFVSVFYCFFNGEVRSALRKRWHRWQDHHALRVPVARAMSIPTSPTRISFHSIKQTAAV

The assay concerns the target CRFR^2 expressed by A7r5 cells, P47866. Briefly: cell-based or functional assay.
As for HPGSRIVLSLDVPIGLLQILLEQARARAAREQATTNARILARV-NH2 [SRP (HPGSR-hUcn 2)], the cAMP A7r5 (EC50, nM) is 0.09 nM.
To IVLSLDVPIGLLQILLEQARARAAREQATTNARILARV-OH [hUcn 2-OH] belongs 90.4 nM; to VILSLDVPIGLLRILLEQARYKAARNQAATNAQILAHV-NH2 [mUcn 2], 0.07 nM; to IVLSLDVPIGLLQILLEQARARAAREQATTNARILARV-NH2 [hUcn 2], 0.11 nM.
The same measure for B1: 9.5 nM.
B2 registered a cAMP A7r5 (EC50, nM) of 2.3 nM.
Turning to B3, the cAMP A7r5 (EC50, nM) stood at 0.53 nM.
The same measure for IVLSLDVPIGLLQILLEQARARAAREQATTNARILARVGH-OH [hUcn 2-GH-OH]: 2.9 nM; for IVLSLDVPIGLLQILLEQARARAAREQATTNARILARVGHC-OH [hUcn 2-GHC-OH]: 13.9 nM; for IVLSLDVPIGLLQILLEQARARAAREQATTNARILARVG-OH [hUcn 2-G-OH]: 6.3 nM.
Regarding RVILSLDVPIGLLRILLEQARYKAARNQAATNAQILAHV-NH2 [R^0-mUcn 2], the cAMP A7r5 (EC50, nM) is 0.05 nM.
The molecule RIVLSLDVPIGLLQILLEQARARAAREQATTNARILARV-NH2 [R^0-hUcn 2] showed a cAMP A7r5 (EC50, nM) of 0.027 nM.
